Data reported in patent US20140120058A1, “POLYMER CONJUGATED PROSTAGLANDIN ANALOGUES” (POLYACTIVA PTY LTD, priority 2011, published 2014).

Experiment: In vitro drug release from melt-extruded rods in isotonic phosphate buffer
Assay type: physicochemical
Conditions: rod-shaped samples, isotonic phosphate buffer pH 7.4, 37° C.; for Release Rate (ng of free acid Latanoprost/mg polymer drug conjugate/24 hours): continuous stirring, HPLC-UV
Experimental: Following in vitro release guidelines recommended by the International Organisation of Standardisation, rod-shaped samples prepared by melt extrusion, were suspended in wire baskets which were immersed in isotonic phosphate buffer (IPB), adjusted to pH 7.4 using orthophosphoric acid and containing 0.01% sodium azide as a preservative, and incubated at 37° C. with continuous stirring. Aliquots of the receptor solution were removed for analysis at predetermined time points until drug release from the polymer no longer increased.
The amount of prostaglandin drug released from the rods at the various time points was quantified by reverse phase high performance liquid chromatography (HPLC) with a UV absorbance detector and analyte separation was performed on a C18 column either isocratically or with a gradient system using a degassed mobile phase.
Using the above method, the rate of release of the prostaglandin drug latanoprost from various polymer-drug conjugates was determined.

Row | Substance | Period of zero-order release | Release Rate (ng of free acid Latanoprost/mg polymer drug conjugate/24 hours)
1 | Polyurethane of (Z)-1,3-dihydroxypropan-2-yl 7-((1R,2R,3R,5S)-3,5-dihydroxy-2-((R)-3-hydroxy-5-phenylpentyl)cyclopentyl)hept-5-enoate and DVDIP [Example 12] | 61 days | 637 ng of free acid Latanoprost/mg
2 | Polyurethane of (Z)-1,3-dihydroxypropan-2-yl 7-((1R,2R,3R,5S)-3,5-dihydroxy-2-((R)-3-hydroxy-5-phenylpentyl)cyclopentyl)hept-5-enoate and ELDI [Example 10] | 61 days | 899 ng of free acid Latanoprost/mg
3 | Polyurethane of (Z)-3-hydroxy-2-(hydroxymethyl)-2-methylpropyl 7-((1R,2R,3R,5S)-3,5-dihydroxy-2-((R)-3-hydroxy-5-phenylpentyl)cyclopentyl)hept-5-enoate and DVDIP [Example 16] | 61 days | 138 ng of free acid Latanoprost/mg
